Results from the MegaScale stability set (Tsuboyama et al. 2023).

B1: EHEE_rd4_0726 (parent)
chain: DIEITTNGEEDAKRVIKELQKRNLEYHIEVHGNQWVIKVR

Variants of: B1
Assay: folding stability dG (cDNA display proteolysis); higher = more stable
Conditions: PBS, room temperature

Variant | folding stability dG [kcal/mol]
N23L | 1.77
N33Y | 1.98
K13A | 2.4
G32F | 1.51
V36E | 0.046
V36S | 0.912
V36L | 1.93
D11I | 2.03
Y26T | 0.301
R22G | 1.45
V30F | 2.06
E10D | 2.25
V15R | 0.981
V15S | 0.278
Q20N | 2.22
K17I | 2.46
T6G | 2.65
I28S | 0.224
H27Q | 2.45
I16H | -0.379
